Source: PMC7695694, “Yeast Nup84-Nup133 complex structure details flexibility and reveals conservation of the membrane anchoring ALPS motif” (Nature Communications, 2020)

Key:
Settings in all cases: both partners purified
[1] = biological target: T1, Nup133 N-terminal domain (Nup133NTD, residues 55-481, S. cerevisiae) (S. cerevisiae, UniProt P36161); test: crystal structure; Nup133NTD-VHH-SAN5, molecular replacement; six copies in the asymmetric unit; crystals at 18 °C, PEG MME 2,000, potassium chloride, Tris/HCl pH 8.0
T1 construct: Nup133, S. cerevisiae, N-terminal beta-propeller domain, residues 55-481; The 6xHis tag is 3C cleavable; also called scNup133NTD; WT-Nup133NTD; source: E. coli LOBSTR-RIL(DE3), purified (Ni Sepharose, Superdex 75)
T1 sequence (P36161 55-481): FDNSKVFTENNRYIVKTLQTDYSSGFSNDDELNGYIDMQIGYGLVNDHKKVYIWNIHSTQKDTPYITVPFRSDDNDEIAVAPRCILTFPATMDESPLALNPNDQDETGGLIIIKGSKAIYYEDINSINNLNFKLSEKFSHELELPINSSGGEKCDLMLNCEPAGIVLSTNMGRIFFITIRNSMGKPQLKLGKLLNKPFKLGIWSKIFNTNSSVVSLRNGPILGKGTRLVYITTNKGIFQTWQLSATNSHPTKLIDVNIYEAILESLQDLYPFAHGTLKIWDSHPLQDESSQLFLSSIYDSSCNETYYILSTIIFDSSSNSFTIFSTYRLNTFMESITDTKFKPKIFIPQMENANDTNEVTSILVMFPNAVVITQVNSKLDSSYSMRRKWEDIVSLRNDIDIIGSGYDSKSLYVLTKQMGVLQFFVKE

[2] = biological target: T1, Nup133 N-terminal domain (Nup133NTD, …); test: crystal structure; Nup133NTD-VHH-SAN4, 2.1 Å, molecular replacement; crystals at 18 °C, PEG 3,350, ammonium sulfate, Bis-Tris/HCl pH 5.5
[3] = biological target: T2, Nup84 (full-length, S. cerevisiae) (S. cerevisiae, UniProt P52891); test: crystal structure; Nup84-Nup133CTD with VHH-SAN8 and VHH-SAN9, 7.4 Å; crystallised under the same conditions and in the same crystal form as the VHH-SAN8 complex
T2 construct: Nup84, S. cerevisiae, full length; The N-terminal 10xHis-8xArg-SUMO tag is 3C cleavable; also called scNup84
T2 sequence (P52891 whole entry): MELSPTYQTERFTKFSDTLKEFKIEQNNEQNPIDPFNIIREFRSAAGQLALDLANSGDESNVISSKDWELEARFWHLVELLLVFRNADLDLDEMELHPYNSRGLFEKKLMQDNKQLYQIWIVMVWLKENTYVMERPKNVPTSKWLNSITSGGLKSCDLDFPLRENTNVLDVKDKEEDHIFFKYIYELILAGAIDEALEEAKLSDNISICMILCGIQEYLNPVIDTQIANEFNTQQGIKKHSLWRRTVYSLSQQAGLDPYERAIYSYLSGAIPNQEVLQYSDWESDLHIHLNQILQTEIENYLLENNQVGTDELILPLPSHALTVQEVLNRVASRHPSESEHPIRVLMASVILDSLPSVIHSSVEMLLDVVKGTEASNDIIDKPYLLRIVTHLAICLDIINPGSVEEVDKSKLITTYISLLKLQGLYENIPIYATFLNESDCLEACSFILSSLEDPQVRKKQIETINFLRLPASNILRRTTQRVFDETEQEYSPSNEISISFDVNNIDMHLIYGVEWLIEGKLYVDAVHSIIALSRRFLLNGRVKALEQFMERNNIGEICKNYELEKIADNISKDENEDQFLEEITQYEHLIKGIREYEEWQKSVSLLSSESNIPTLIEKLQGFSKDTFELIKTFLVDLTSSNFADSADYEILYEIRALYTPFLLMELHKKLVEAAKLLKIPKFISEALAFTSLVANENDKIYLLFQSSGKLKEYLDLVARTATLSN

[4] = biological target: T3, Nup84-Nup133CTD heterodimeric complex (S. cerevisiae) (Saccharomyces cerevisiae (strain ATCC …, UniProt P52891;P36161)); test: as above
T3 construct: Nup84, S. cerevisiae, full length; source: E. coli LOBSTR-RIL(DE3), co-expressed from a bicistronic vector, purified (Ni Sepharose, SP Sepharose, Superdex 200)
T3 sequence (P52891 whole entry, chain 1 of 2): as the sequence (P52891 whole entry) above
T3 sequence (P36161 521-1157, chain 2 of 2): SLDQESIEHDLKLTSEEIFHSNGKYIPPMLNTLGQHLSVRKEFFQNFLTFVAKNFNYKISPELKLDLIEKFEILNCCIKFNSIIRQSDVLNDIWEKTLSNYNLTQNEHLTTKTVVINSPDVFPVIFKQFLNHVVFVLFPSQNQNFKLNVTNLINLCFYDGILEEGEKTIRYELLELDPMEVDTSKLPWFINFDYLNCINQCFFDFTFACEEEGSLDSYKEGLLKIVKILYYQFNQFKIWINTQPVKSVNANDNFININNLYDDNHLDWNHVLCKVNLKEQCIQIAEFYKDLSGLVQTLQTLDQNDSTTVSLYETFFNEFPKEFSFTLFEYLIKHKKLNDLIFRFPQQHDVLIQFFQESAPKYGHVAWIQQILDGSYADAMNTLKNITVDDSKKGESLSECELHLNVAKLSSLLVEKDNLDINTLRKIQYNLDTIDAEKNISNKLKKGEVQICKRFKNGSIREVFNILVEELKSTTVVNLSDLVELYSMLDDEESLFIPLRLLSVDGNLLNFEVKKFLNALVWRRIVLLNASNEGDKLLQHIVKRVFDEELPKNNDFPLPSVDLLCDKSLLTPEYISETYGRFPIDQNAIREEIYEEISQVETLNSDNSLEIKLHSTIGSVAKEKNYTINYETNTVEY

[5] = biological target: T2, Nup84 (full-length, S. cerevisiae); test: crystal structure; Nup84-Nup133CTD-VHH-SAN8, 6.4 Å, SAD with a [TeW6O24]6- derivative; crystals at 18 °C, PEG 8,000, ethylene glycol, imidazole/MES pH 6.5
[6] = biological target: T3, Nup84-Nup133CTD heterodimeric complex …; test: as above

B1: VHH-SAN5 (VHH)
VHH: QVQLVESGGGLVQAGGSLRLSCAASGSIGSLDAMAWYRRAPGKQRERVASISRYGTYYVDSVKGRFTISRDNAKNTVYLQMNSLKPEDTGVYYCKGVMEVGGVIDEYWGQGTQVTVSS
notes: structure with this nanobody deposited as PDB 6X04; also called nanobody VHH-SAN5; source: E. coli LOBSTR-RIL(DE3), purified (Ni Sepharose, tag cut with bdSENP1, Superdex 75); not shown: 14xHis, N-terminal, cleaved; bdSUMO, N-terminal, cleaved
B1: binds [1].

B2: VHH-SAN4 (VHH)
VHH: QLQLVESGGGSVQAGGSLTLSCTASESISKRIHGIGWFRQRRGEQREEIAYITTGGRPNLGDSVKDRFTISRDKSNGTVYLQMNSLKPEDTAVYYCHGRGRWWGTEGRLDYWGQGTQVTVSS
notes: structure with this nanobody deposited as PDB 6X05; also called nanobody VHH-SAN4; source: E. coli LOBSTR-RIL(DE3), purified (Ni Sepharose, tag cut with bdSENP1, Superdex 75); not shown: 14xHis, N-terminal, cleaved; bdSUMO, N-terminal, cleaved
B2: binds [2].

B3: VHH-SAN9 (VHH)
VHH: QVQLVESGGGSVQAGGSLRLSCAVSGGTLSTLAMGWFRQAPGQEREFVARIGWTNGDTGYADSVKGRFTISRDNVKNTVYLQMNNLKPEDTALYYCATRRPYGSTLYPPNTESAHDNWGQGTQVTVSS
notes: structure with this nanobody deposited as PDB 6X03 (modelled as a generic nanobody without CDRs); also called VHH9; nanobody VHH-SAN9; source: E. coli LOBSTR-RIL(DE3), purified (Ni Sepharose, tag cut with bdSENP1, Superdex 75); not shown: 14xHis, N-terminal, cleaved; bdSUMO, N-terminal, cleaved
B3: binds [3]; binds [4].

B4: VHH-SAN8 (VHH)
VHH: QLQLVETGGGLVQAGGSLRLSCVASGRTFTSYAMGWFRQAPGKEREFVAAISRLASGTDYADSVKGRFTISRNNDKNTVYLQMNNLIPEDTAVYYCAALQALRFSLPIAMATMKNGRADSWGQGTQVTVSS
notes: structures with this nanobody deposited as PDB 6X02 and 6X03 (modelled as a generic nanobody without CDRs); Selected by phage display from an alpaca immunised with the full-length Y complex, panned against Nup84; also called VHH8; nanobody VHH-SAN8; source: E. coli LOBSTR-RIL(DE3), purified (Ni Sepharose, tag cut with bdSENP1, Superdex 75); not shown: 14xHis, N-terminal, cleaved; bdSUMO, …
B4: binds [5]; binds [6].
